Experimental data reported in publication PMC6465249 (Cell Discovery, 2019).

Key:
Conditions in all cases: both partners purified
[1] = molecular target: Recombinant hemagglutinin of H14N6 A/long-tailed duck/Wisconsin/10OS3912/2010, ectodomain, monomeric (Influenza A virus A/long-tailed …, UniProt G5DSS3, strain); assay: SPR
[2] = molecular target: Recombinant hemagglutinin of H3N2 A/Aichi/2/1968, ectodomain, monomeric (Influenza A virus A/Aichi/2/1968 (H3N2), strain); assay: SPR
[3] = molecular target: Recombinant hemagglutinin of H10N8 A/Jiangxi-Donghu/346/2013, ectodomain, monomeric (Influenza A virus …, strain); assay: SPR
[4] = molecular target: Recombinant hemagglutinin of H7N9 A/Anhui/1/2013, ectodomain (Influenza A virus A/Anhui/1/2013 …, UniProt A0A024E3P0, strain); assay: SPR
[5] = molecular target: Recombinant hemagglutinin of H4N6 A/duck/Czech/1956, ectodomain, monomeric (Influenza A virus A/duck/Czech/1956 …, strain); assay: SPR
[6] = molecular target: T1, H3 HA (strain not given) (Influenza A virus A/Aichi/2/1968 (H3N2)); assay: SPR
[7] = molecular target: H14 HA (H14N6 A/long-tailed duck/Wisconsin/10OS3912/2010) (Influenza A virus A/long-tailed …, UniProt G5DSS3); assay: SPR
[8] = molecular target: T1, H3 HA (strain not given); assay: ELISA
[9] = molecular target: Recombinant hemagglutinin of H15N8 A/duck/Australia/341/1983, ectodomain, monomeric (Influenza A virus …, UniProt Q82565, strain); assay: SPR

Binder	Kd [1]	Kd [2]	Kd [3]	Kd [4]	Kd [5]	binding result [6]	binding result [7]	binding result [8]	Kd [9]
AF4H1K1 Fab (Fab, V domains shown, also called H1 paired with K1) VH: QVQLVESGGGVVQPGTSLRLSCEASGFTSSAYAMHWVRQAPGKGLEWVAVITFDGGYQYYADSVKGRFTISRDISRNTLHLHMNSLRAEDTAVYYCARDPLTKLLPFDWVSGGYFDYWGQGTLVTVSS VL: not shown	16 nM	0.79 nM	21 nM	14 nM	9 nM	–	–	–	–
AF4H1K1 Fab (Fab, V domains shown, also called AF4H1K1 Fab fragment) VH: QVQLVESGGGVVQPGTSLRLSCEASGFTSSAYAMHWVRQAPGKGLEWVAVITFDGGYQYYADSVKGRFTISRDISRNTLHLHMNSLRAEDTAVYYCARDPLTKLLPFDWVSGGYFDYWGQGTLVTVSS VL: not shown	–	–	–	–	–	binds	binds	–	–
AF4H1/L1CDR3m (antibody, V domains shown, IgG; copies: 2 + 2) VH: QVQLVESGGGVVQPGTSLRLSCEASGFTSSAYAMHWVRQAPGKGLEWVAVITFDGGYQYYADSVKGRFTISRDISRNTLHLHMNSLRAEDTAVYYCARDPLTKLLPFDWVSGGYFDYWGQGTLVTVSS VL: SYELTQPPSVSVSPGQTASITCSGDKLGDKYACWYQQKPGQSPVLVIYQDSKRPSGIPERFSGSNSGNTATLTISGTQAMDEADYYCQQYGSSFTFGTGTKVTVL	–	–	–	–	–	–	–	no binding	–
AF4H1/FI6v3L Fab (Fab, V domains shown, also called AF4H1/FI6L; hybrid MAb with heavy chain from AF4H1K1 and light chain from FI6v3) VH: QVQLVESGGGVVQPGTSLRLSCEASGFTSSAYAMHWVRQAPGKGLEWVAVITFDGGYQYYADSVKGRFTISRDISRNTLHLHMNSLRAEDTAVYYCARDPLTKLLPFDWVSGGYFDYWGQGTLVTVSS VL: not shown	15.9 nM	0.0764 nM	37.7 nM	11.2 nM	1.93 nM	–	–	–	518 nM
